We go through 1 substance from IntAct's records for PubMed 26167883.

In the assay the target is mcm2_human MCM2 (UniProt P49736).

For the substance “Histone H3.1 (Homo sapiens) (from UniProt P68431) R64A;K65A”, the “effect of a mutation on the interaction” value is given as “decreasing interaction strength”.
